Residues, ends and D or L forms follow the SMILES beside them. No end group written: not given here. *: point of attachment. Cbz = O=C(OCc1ccccc1)*
Tests used:
[1] = target: T1, QRFPR (Homo sapiens, UniProt Q96P65); test: QRFPR levels after prolonged GDF15 stimulation with or without proteasome inhibition; assay type: cell-based; conditions: MG132 10 μM + GDF15 overnight vs equal GDF15 without MG132; FIG. 6
T1 construct: endogenous in cells
T1 sequence (Q96P65 1-431): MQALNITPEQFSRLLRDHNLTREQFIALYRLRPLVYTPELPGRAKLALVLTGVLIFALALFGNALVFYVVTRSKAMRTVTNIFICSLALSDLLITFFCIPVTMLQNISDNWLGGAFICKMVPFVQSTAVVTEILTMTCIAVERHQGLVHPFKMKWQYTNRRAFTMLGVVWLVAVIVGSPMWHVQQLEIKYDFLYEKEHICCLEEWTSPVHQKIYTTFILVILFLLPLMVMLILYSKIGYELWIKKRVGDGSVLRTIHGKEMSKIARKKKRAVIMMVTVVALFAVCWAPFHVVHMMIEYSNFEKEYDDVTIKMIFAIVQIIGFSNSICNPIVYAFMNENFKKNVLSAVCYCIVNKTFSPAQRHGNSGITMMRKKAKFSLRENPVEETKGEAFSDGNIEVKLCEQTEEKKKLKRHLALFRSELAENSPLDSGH
Experimental: This effect is not seen in cells which are treated with MG132 (FIG. 6D).

[2] = target: T2, GDF15 (Homo sapiens, UniProt Q99988); test: Pull down of GDF15 by Fc fusion proteins with stringent washes; assay type: binding; conditions: 20 μg Fc fusion protein, 0.5 μg GDF15, protein-G bead, FIG. 27
T2 construct: purchased Abcam
T2 sequence (Q99988 197-308 limits assumed): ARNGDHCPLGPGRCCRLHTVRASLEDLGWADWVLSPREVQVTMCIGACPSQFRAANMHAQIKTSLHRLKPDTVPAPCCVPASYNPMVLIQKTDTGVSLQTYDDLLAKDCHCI
Experimental: (§1) 20 μg Fc fusion protein constructs were incubated with 0.5 μg GDF15 and protein-G bead with mixing for 6 hrs in +4 C in PBST+1% BSAs. Wash 6 times: 3 times PBST, change tubes, 2 washes PBST+220 mM NaCl. Last wash PBS. The beads were collected using a table-top centrifuge set at 500 g for 5 minutes between washes. Detection The material was loaded on a 4-12% gradient gel, run at 100 volt, transferred to PVDF membrane using a Turbo Tank blot system, blocked by PBS with 3% BSA 1 hr RT, and incubated with RD systems a monoclonal anti-GDF15 antibody overnight. A secondary antibody: mouse HRP 1:2000 was used for detection. The size of band was estimated by comparing with a seeblue2 protein ladder marker run in an adjacent lane.
The fragments from the receptors were selected based on previous results including array data indicating direct interaction with GDF15. In the array, the interaction is between a peptide monomer and the ligand.

[3] = system: CD14+ cells; test: Cytokine secretion by LPS-stimulated CD14+ cells (Proseek assay); assay type: cell-based
Experimental: CD14+ cells where isolated and cultured in the presence or absence of GDF15 in a LPS stimulated culture.
Buffy coat cell suspension or heparinized blood samples were diluted with sterile, room temperature PBS. Peripheral blood samples are diluted 1:1, whereas buffy coats are diluted to a final volume of 120 ml (in a standard buffy coat this will result in slightly greater dilution than 1:1). The diluted cell suspension was layered onto Ficoll Paque PLUS. For one buffy 4×15 ml aliquots are used (30 ml of diluted cell suspension/tube). Cells were centrifuged at 400×g for 30 min at room temperature and transferred to a new 50 ml tube. Cells were washed once and resuspended in 20 ml PBS.
Mononuclear cell suspension was pelleted by centrifugation. Cells were resuspended in Stemcell buffer at a concentration of 10^8 cells/ml and transferred to a round bottom 14 ml tube. EasySep Positive Selection cocktail at was added at 100 μl/ml cells, mixed by gentle pipetting, and incubated at room temperature for 15 min. 50 μl EasySep Magnetic Nanoparticles per 1 ml cells were added and mixed, and incubated at room temperature for 10 min. Stemcell recommended medium was added to bring the cell suspension to a total volume of 5 ml and mixed by gently pipetting. The tube (without cap) was placed into the magnet and set aside for 5 min. After 5 minutes the supernatant was discarded. CD14+ labelled cells will remain inside the tube. The tube was removed from the magnet and add 5 ml Stemcell recommended medium was added and mixed by gently pipetting. The tube (without cap) was placed into the magnet and set aside for 5 min. The was step was repeated before the cells were resuspended in 5 ml complete RPMI medium. 50 μl of the CD14+ cell suspension was removed and counted to determine total cell number after dilution in Trypan blue solution and mounting on Fast Read 102 Counting Slides.
Adjust CD14+ cell suspension volume to a concentration of 0.833×10^6 cells/ml in complete RPMI medium. 300 μl of cell suspension is added to wells in a 48 well plate well (0.25×10^6 cells per well), and allowed to adhere for 90 min in an incubator at 37° C. Non-adherent cells were removed by removal of the supernatant after gently pipetting the medium. Cells were washed once with 300 μl pre-warmed complete RPMI medium and the medium aspirated off. 300 μl pre-warmed complete RPMI medium was added to each well and the cells were incubate overnight (20-24 h) in a cell incubator at 37° C.
A 17× stock solution of the desired GDF15 modulatory substances was diluted in complete RPMI. (20 μl of substance/well assayed). 20 μl of modulatory substance or medium/carrier (negative control) was added to each well and mixed by gentle pipetting. Cells were incubated for 30 min in a cell incubator at 37° C. A 17×GDF15 solution was prepared by diluting a 100 μg/ml stock solution to a concentration of 8.5 μg/ml (final concentration in culture 0.5 μg/ml) in complete RPMI. 20 μl of diluted GDF15 was added per well, and incubated overnight (18-20 h) in a cell incubator at 37° C.
A 18×LPS solution was prepared by diluting the LPS stock solution to a concentration of 18 ng/ml (final concentration in culture 1 ng/ml) in complete RPMI. 20 μl of LPS or medium (negative control) was added to each well and mixed by gentle pipetting. […]
Secreted proteins from cell cultures where quantified using multiplexed proximity extension assay, Proseek (Assarsson E et al PlosOne 2014) by Olink Proteomics AB (Uppsala Sweden). […]

[4] = target: T2, GDF15; test: Biotin pull-down of GDF15 using biotinylated peptides derived from QRFPR and CLPTM1; assay type: binding; conditions: N-terminal biotin peptides on Streptavidin-agarose beads, extensive washes; FIG. 8A
Experimental: In order to further characterise the peptides which interact with GDF15, a series of GST-fusion proteins and biotinylated peptides was prepared. GDF15 was obtained from Biovision and/or Abcam.
A series of peptides from the QRFPR and the CLPTM1 proteins was designed. In order to use the peptides both for immunoprecipitation experiments and cell culture based assays added an N-terminal biotin was added to each peptide, and the counter-ion changed to chloride.
A series of biotinylated peptides was used (FIG. 8A). […] Combinations of the peptides were also used. Peptides were mixed in a 1:1 ratio, with same total amounts as in lanes 1-5, resulting in 50% of each peptide as compared to lanes 1-5. Lane 6: EC domain 3 & EC domain 4 from QRFPR; Lane 7: EC domain 4 from QRFPR & peptide from EC domain of CLPTM1; Lane 8: EC domain 3 from QRFPR & peptide from EC domain of CLPTM1; Lane 9: Mw markers; Lane 10: GDF15 (positive control).

[5] = target: T3, Growth and differentiation factor 15 (GDF15) (UniProt Q99988 197-308, limits assumed); test: Fc-fusion pull-down on protein-G beads, Western blot
T3 construct: Purchased GDF15 added to cells, pull-downs, peptide arrays and ELISA; also called MIC1
T3 sequence (looked up): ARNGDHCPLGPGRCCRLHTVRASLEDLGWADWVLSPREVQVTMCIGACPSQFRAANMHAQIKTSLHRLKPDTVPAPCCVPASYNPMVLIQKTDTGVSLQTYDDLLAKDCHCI
Experimental: as §1

[6] = target: T4, Cleft Lip and Palate Transmembrane protein 1 (CLPTM1) (human, UniProt O96005 2-669); test: in situ PLA on NK-92 cells
T4 construct: Endogenous receptor of NK-92 cells, CD14+ cells and human tissues
T4 sequence: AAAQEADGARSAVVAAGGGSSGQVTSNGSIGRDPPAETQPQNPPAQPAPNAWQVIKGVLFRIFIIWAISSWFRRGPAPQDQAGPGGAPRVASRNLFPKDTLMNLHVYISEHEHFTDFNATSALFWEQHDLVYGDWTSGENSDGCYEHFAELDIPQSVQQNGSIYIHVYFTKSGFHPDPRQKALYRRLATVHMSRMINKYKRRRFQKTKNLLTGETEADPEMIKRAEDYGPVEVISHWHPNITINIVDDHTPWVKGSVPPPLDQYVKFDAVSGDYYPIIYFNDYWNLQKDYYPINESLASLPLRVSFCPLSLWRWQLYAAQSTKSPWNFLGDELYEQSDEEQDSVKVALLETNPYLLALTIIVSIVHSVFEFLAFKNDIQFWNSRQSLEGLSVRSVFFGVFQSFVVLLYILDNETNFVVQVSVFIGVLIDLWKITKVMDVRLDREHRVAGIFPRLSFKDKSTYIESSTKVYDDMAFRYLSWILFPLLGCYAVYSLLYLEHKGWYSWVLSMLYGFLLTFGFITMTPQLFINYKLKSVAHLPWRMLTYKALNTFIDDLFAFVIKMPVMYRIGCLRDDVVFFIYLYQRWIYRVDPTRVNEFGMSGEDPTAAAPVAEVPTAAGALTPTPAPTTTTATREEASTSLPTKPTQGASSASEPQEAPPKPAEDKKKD

[7] = LPS stimulated CD14+ cells with GDF15 + agent

## CC(C)C[C@@H](C=O)NC(=O)[C@H](CC(C)C)NC(=O)[C@H](CC(C)C)NC(=O)OCc1ccccc1 [MG132, reference compound] (Cbz-Leu-Leu-Leu-aldehyde)
[1]
  levels of QRFPR: levels of QRFPR were increased

## Fc mouse IgG1-GGGGSGGGGSGGGGSYISEHEHFTDFNATSALFWEQHDLVYGDWTS ({Fc mouse IgG1}-GGGGSGGGGSGGGGSYISEHEHFTDFNATSALFWEQHDLVYGDWTS) [AP2, Fc fusion protein with CLPTM1 peptide]
[2]
  pull down of GDF15 by Fc fusion protein: capable of pulling down GDF15
[3]; LPS stimulated CD14+ cells + agent, FIG. 30
  secretion of IFNγ: demonstrated secretion of the pro-inflammatory protein IFNγ
[3]; [7]
  secretion of IL12: increase in secretion of both cytokines
  secretion of TNF: increase in secretion of both cytokines

## GALFWEQHDLVYGDWTS (listed as Homo sapiens) [SEQ ID NO:19]
[4]
  GDF15 precipitated by biotinylated peptide (pull-down): more successful than the others in precipitating GDF15

## GEIKYDFLYEKEHICCLEEWTS (listed as Homo sapiens) [SEQ ID NO:10]
[4]
  GDF15 precipitated by biotinylated peptide (pull-down): more successful than the others in precipitating GDF15

B1: AP5 (QRFPR peptide): Fc mouse IgG1-GGGGSGGGGSGGGGSQRLEIKYDFLYEKEH (Fc fusion, not shown: a dimerising Fc or GST)
chain: {Fc mouse IgG1}-GGGGSGGGGSGGGGSQRLEIKYDFLYEKEH
modifications: also: Fc fusion dimer
notes: if the entry holds the Fc too, the first part is redundant; also called AP5 construct; Fc fusion protein comprising a QRFPR polypeptide
[5]
  binding result: binds

B2: TGFBRII (receptor, UniProt P37173 23-567, looked up)
chain: TIPPHVQKSVNNDMIVTDNNGAVKFPQLCKFCDVRFSTCDNQKSCMSNCSITSICEKPQEVCVAVWRKNDENITLETVCHDPKLPYHDFILEDAASPKCIMKEKKKPGETFFMCSCSSDECNDNIIFSEEYNTSNPDLLLVIFQVTGISLLPPLGVAISVIIIFYCYRVNRQQKLSSTWETGKTRKLMEFSEHCAIILEDDRSDISSTCANNINHNTELLPIELDTLVGKGRFAEVYKAKLKQNTSEQFETVAVKIFPYEEYASWKTEKDIFSDINLKHENILQFLTAEERKTELGKQYWLITAFHAKGNLQEYLTRHVISWEDLRKLGSSLARGIAHLHSDHTPCGRPKMPIVHRDLKSSNILVKNDLTCCLCDFGLSLRLDPTLSVDDLANSGQVGTARYMAPEVLESRMNLENVESFKQTDVYSMALVLWEMTSRCNAVGEVKDYEPPFGSKVREHPCVESMKDNVLRDRGRPEIPSFWLNHQGIQMVCETLTECWDHDPEARLTAQCVAERFSELEHLDRLSGRSCSEEKIPEDGSLNTTK
notes: whole, on cells
[6]
  binding result: binds

B3: TGFBRI (ALK5) (receptor, UniProt P36897 34-503, looked up)
chain: LQCFCHLCTKDNFTCVTDGLCFVSVTETTDKVIHNSMCIAEIDLIPRDRPFVCAPSSKTGSVTTTYCCNQDHCNKIELPTTVKSSPGLGPVELAAVIAGPVCFVCISLMLMVYICHNRTVIHHRVPNEEDPSLDRPFISEGTTLKDLIYDMTTSGSGSGLPLLVQRTIARTIVLQESIGKGRFGEVWRGKWRGEEVAVKIFSSREERSWFREAEIYQTVMLRHENILGFIAADNKDNGTWTQLWLVSDYHEHGSLFDYLNRYTVTVEGMIKLALSTASGLAHLHMEIVGTQGKPAIAHRDLKSKNILVKKNGTCCIADLGLAVRHDSATDTIDIAPNHRVGTKRYMAPEVLDDSINMKHFESFKRADIYAMGLVFWEIARRCSIGGIHEDYQLPYYDLVPSDPSVEEMRKVVCEQKLRPNIPNRWQSCEALRVMAKIMRECWYANGAARLTALRIKKTLSQLSQQEGIKM
notes: whole, on cells; also called TGFBR1
[6]
  binding result: binds

B4: AP2 (CLPTM1 peptide): Fc mouse IgG1-GGGGSGGGGSGGGGSYISEHEHFTDFNATSALFWEQHDLVYGDWTS (Fc fusion, not shown: a dimerising Fc or GST)
chain: {Fc mouse IgG1}-GGGGSGGGGSGGGGSYISEHEHFTDFNATSALFWEQHDLVYGDWTS
modifications: also: Fc fusion dimer
notes: also called AP2 construct; Fc fusion protein comprising a CLPTM1 polypeptide
[5]
  binding result: binds

Source: patent US20180282403A1, “AGENTS FOR REDUCING THE ACTIVITY OF GDF15” (GENAGON THERAPEUTICS AB, priority 2015, published 2018)
